Several values for one entry are separate records, joined by “and”; a condition that tells them apart may be missing. Equal values may be shown once.

The target in one series is apo-E. coli AcpP (Escherichia coli, UniProt P0A6A8). Conditions: Sfp for apo-E. coli AcpP; cited from earlier work.
In the next series the target is T1, ybbR (Bacillus subtilis, UniProt O34659).
T1 sequence (O34659 whole entry, looked up): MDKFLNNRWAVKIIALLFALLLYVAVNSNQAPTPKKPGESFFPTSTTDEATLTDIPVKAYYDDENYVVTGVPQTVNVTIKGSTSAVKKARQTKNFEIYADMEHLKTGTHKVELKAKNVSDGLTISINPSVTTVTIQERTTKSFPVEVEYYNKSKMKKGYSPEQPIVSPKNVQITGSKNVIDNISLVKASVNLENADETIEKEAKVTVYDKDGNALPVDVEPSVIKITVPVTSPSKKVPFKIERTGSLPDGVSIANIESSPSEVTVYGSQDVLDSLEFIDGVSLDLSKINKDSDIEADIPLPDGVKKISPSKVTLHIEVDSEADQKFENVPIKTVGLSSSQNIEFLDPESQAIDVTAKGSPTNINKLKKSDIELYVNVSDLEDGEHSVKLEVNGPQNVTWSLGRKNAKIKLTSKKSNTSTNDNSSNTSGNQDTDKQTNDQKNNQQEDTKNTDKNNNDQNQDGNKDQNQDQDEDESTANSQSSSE
Conditions: Sfp for ybbR; cited from earlier work.

Another series addresses T2, crypto-FITC-YbbR (3) (Bacillus subtilis, UniProt O34659).
T2 construct: made in house; host or cells: enzymatic labelling of FITC-ybbR peptide with Sfp and rhodamine-CoA
T2 sequence (O34659 whole entry, looked up): T1 sequence (O34659 whole entry, looked up)
Briefly: FRET-quench microwell AcpH kinetics. It counts as biochemical. Conditions: 37° C., FRET-quench microwell plate assay, [AcpH] 1 μm. Here is the method:
Preparation of rhodamine-labeled FITC-ybbR proceeded via reaction of 200 μM FITC-ybbR with 200 μM rhodamine WT-CoA synthesized as described previously^33 with 1 μM Sfp in 50 mM HEPES pH 7.5 and 10 mM MgCl2 for 2 hours at 37° C.
Rhodamine-labeled FITC-Ybbr as well as standard 1:1 apo-FITC-ybbR:rhodamine-CoA was subjected to an 11-point serial dilution in 50 mM TrisCl pH 8.0 to achieve final concentrations of 400-0.4 μM. […] Total reaction volumes were 50 μL and utilized a 96-well Costar 3694 plate (Corning, Lowell, Mass.). Following mixing, reactions were centrifuged for 2 minutes at 1500 rpm, and incubated at 37° C. over 4 hours in a HTS 7000 plus Bioassay Reader (Perkin Elmer, Waltham, Mass.) in kinetic mode. Comparison of enzyme reactions to buffer blank and 1:1 apo-FITC-ybbR:rhodamine-CoA standard allowed calculation of product formation and determination of Michaelis-Menten kinetics using GraphPad Prism.

A further series deals with L majuscula JamF. Description: AcpH qualitative CP activity, gel-based, crypto-CP. It counts as biochemical. Conditions: PKS; crypto-CP (coumarin-PPant), overnight, 37° C., 1 μM AcpH.
The subject of a further series is YbbR13. Briefly: AcpH activity with modified ybbR peptide, qualitative. The class given is biochemical. Conditions: for AcpH activity with modified ybbR peptide: coumarin-PPant labeled.
In another series the test system is S. oneidensis AcpP. Description: AcpH qualitative CP activity, holo-SoAcpP, Urea-PAGE. It counts as biochemical. Conditions: FAS, Urea-PAGE gel-shift, shorter timescale.
The next series concerns M. tuberculosis MAS. Description: AcpH qualitative CP activity, gel-based, crypto-CP. The class given is biochemical. Conditions: FAS (FAS/PKS hybrid), overnight, 37° C., 1 μM AcpH.
For the next series, the target named is T3, L majuscula JamC (Moorena producens, UniProt Q6E7K7).
T3 construct: made in house
Briefly: AcpH qualitative CP activity, gel-based, crypto-CP. The class given is biochemical. Conditions: PKS; crypto-CP (coumarin-PPant), overnight, 37° C., 1 μM AcpH.

The next series addresses T4, A. parasiticus PksA (Aspergillus parasiticus, UniProt Q12053).
T4 construct: made in house
Briefly: AcpH qualitative CP activity, gel-based, crypto-CP. Conditions: PKS; crypto-CP (coumarin-PPant), overnight, 37° C., 1 μM AcpH. The class given is biochemical.

In a further series the test system is P. falciparum ACP. Briefly: AcpH qualitative CP activity, gel-based, crypto-CP. The class given is biochemical. Conditions: FAS; crypto-CP (coumarin-PPant), overnight, 37° C., 1 μM AcpH.
The next series concerns the target M. tuberculosis AcpM (Mycobacterium tuberculosis, UniProt P9WQF3). Conditions: FAS; crypto-CP (coumarin-PPant), overnight, 37° C., 1 μM AcpH.
The next series has as its target T5, V. cholerae VibB (Vibrio cholerae serotype O1, UniProt P0C6D3).
T5 sequence (P0C6D3 whole entry, looked up): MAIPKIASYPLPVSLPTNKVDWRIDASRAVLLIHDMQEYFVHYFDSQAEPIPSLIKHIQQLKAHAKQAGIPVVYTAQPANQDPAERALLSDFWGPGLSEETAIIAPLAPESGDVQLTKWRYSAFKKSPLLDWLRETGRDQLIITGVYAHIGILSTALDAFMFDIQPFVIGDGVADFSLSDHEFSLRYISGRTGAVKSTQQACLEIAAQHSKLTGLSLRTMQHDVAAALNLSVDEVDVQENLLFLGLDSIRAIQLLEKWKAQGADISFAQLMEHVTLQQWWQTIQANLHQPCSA
Conditions: NRPS; crypto-CP (coumarin-PPant), overnight, 37° C., 1 μM AcpH.

For the next series, the system named is A. orientalis CepK. Briefly: AcpH qualitative CP activity, gel-based, crypto-CP. The class given is biochemical. Conditions: NRPS; crypto-CP (coumarin-PPant), overnight, 37° C., 1 μM AcpH.
The subject of a further series is G. fujikuroi Pks4. Briefly: AcpH qualitative CP activity, gel-based, crypto-CP. The class given is biochemical. Conditions: PKS; crypto-CP (coumarin-PPant), overnight, 37° C., 1 μM AcpH.
A further series has as its system P. agglomerans AdmA. Description: AcpH qualitative CP activity, gel-based, crypto-CP. It counts as biochemical. Conditions: NRPS; crypto-CP (coumarin-PPant), overnight, 37° C., 1 μM AcpH.
The next series addresses E. coli AcpP (Escherichia coli, UniProt P0A6A8). Conditions: FAS; crypto-CP (coumarin-PPant), overnight, 37° C., 1 μM AcpH. Here is the method:
(§1) Unless otherwise noted, all coumarin-PPant labeling proceeded as follows: apo-carrier protein or peptide at 50-200 μM were labeled in 50 mM Na-HEPES pH 7.5, 10 mM MgCl2, 8 mM ATP, 0.1 μM MBP-CoaA/D/E, 0.1 μM native Sfp, and 1.1 equivalents of coumarin-pantetheine at 37° C. overnight. Crypto-protein samples were repurified using standard IMAC techniques in pH 8 lysis buffer with Ni-NTA resin, and spin-concentrated/buffer exchanged to remove imidazole and concentrate with 0.5 mL 3 kDa MWCO cellulose filters. Crypto-peptide samples were purified with HPLC, lyophilized, and redissolved in 50 mM TrisCl pH 8.0 prior to analysis.
(§2) Following AcpH treatment, an equal volume of 2×SDS-PAGE loading dye was added to crypto-carrier proteins samples and heated 5 min at 90° C., and run on 12% or 15% SDS-PAGE. Gels were fixed in 50/40/10% water/methanol/acetic acid for 30 minutes, and washed with water three times before UV imaging. Holo-carrier protein reactions were analyzed with Urea-PAGE as previously described.^6 All protein gels were Coomassie stained for evaluating total protein. Crypto-peptides were evaluated on Urea-PAGE, and were imaged immediately after running with no gel fixing.

The target in a further series is P. aeruginosa AcpP (Pseudomonas aeruginosa, UniProt O54439). Conditions: FAS; crypto-CP (coumarin-PPant), overnight, 37° C., 1 μM AcpH. How it is done: as §1, §2
The target in the next series is T6, S. coelicolor ActACP (Streptomyces coelicolor, UniProt Q02054).
T6 construct: made in house
T6 sequence (Q02054 whole entry, looked up): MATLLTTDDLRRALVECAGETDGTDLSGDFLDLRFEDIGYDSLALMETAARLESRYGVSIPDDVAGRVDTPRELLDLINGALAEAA
Briefly: AcpH qualitative CP activity, gel-based, crypto-CP. The class given is biochemical. Conditions: PKS; crypto-CP (coumarin-PPant), overnight, 37° C., 1 μM AcpH.

A further series deals with P. syringae SyrB1 (Pseudomonas syringae pv. syringae, UniProt Q52400). Description: AcpH qualitative CP activity, gel-based, crypto-CP. Conditions: NRPS; crypto-CP (coumarin-PPant), overnight, 37° C., 1 μM AcpH. The class given is biochemical.
The test system of the next series is P. fluorescens PltL. Briefly: AcpH qualitative CP activity, gel-based, crypto-CP. The class given is biochemical. Conditions: NRPS; crypto-CP (coumarin-PPant), overnight, 37° C., 1 μM AcpH.
A further series has as its target holo-ACP (E. coli) (Escherichia coli, UniProt P0A6A8). Conditions: 37° C., HPLC detection, [AcpH] 1 (CyAcpH 0.005) μm.
For another series, the system named is P. agglomerans AdmI. Briefly: AcpH qualitative CP activity, gel-based, crypto-CP. Conditions: PKS; crypto-CP (coumarin-PPant), overnight, 37° C., 1 μM AcpH. The class given is biochemical.

Description for holo-ACP (E. coli): Holo-E. coli AcpP was prepared as a serial dilution in 50 mM TrisCl, 250 mM NaCl, 30 mM MgCl2, and 2 mM MnCl2. […] CyAcpH was prepared at 10 nM in the same AcpH buffer. […] Reactions were transferred to prewarmed shaker at 37° C. and were quenched with 100 mM EDTA after 10 minutes. Samples were centrifuged and evaluated at 210 nm with HPLC using an acetonitrile gradient to determine apo-AcpP product formation. Michaelis-Menten kinetics were calculated using GraphPad Prism (GraphPad Software, La Jolla, Calif.).
E. coli holo-ACP was diluted into 50 mM TrisCl pH 8.0, 250 mM NaCl, 10% glycerol, 30 mM MgCl2 and 2 mM MnCl2 buffer to a concentration of 800 μM. […] AcpH was diluted from MOPS lysis buffer into 50 mM TrisCl pH 8.0, 250 mM NaCl, 10% glycerol and added to an equal volume of the holo-ACP serial dilution to initiate the reaction. Reaction tubes were transferred to a pre-warmed rack at 37° C. and shaken for the duration of the experiment. […] All samples were frozen at -80° C. until evaluated by HPLC.
Kinetics samples were mixed briefly with finger flicking, and centrifuged at 13000 rpm for 10 minutes at room temperature prior to transferring contents into HPLC vials. 20 μL of each reaction time point was injected on an Agilent 1100 series HPLC with column (Burdick & Jackson OD5 #9575, 25 cm×4.6 mm ID) using an acetonitrile/water gradient. Both water and acetonitrile contained 0.05% TFA. Method gradient for each injection: 0-5 min with 10% acetonitrile, 5-30 min with 10-100% acetonitrile, 30-35 min with 100% acetonitrile, 35-37 min with 100-10% acetonitrile, 37-40 min with 10% acetonitrile. HPLC-grade solvents (J. T. Baker, Phillipsburg, N.J.) were used exclusively. Apo- & holo-ACP protein standards were used to validate the retention times identified using 210 nm UV light at approximately 21 and 19 minutes, respectively. Peak integration was performed for all samples, and substrate turnover was calculated from the ratio of apo- to holo-ACP present in the HPLC trace and the known concentration of total ACP in reaction samples. Calculated rates for AcpH versus substrate concentration were obtained through Excel data analysis and graphed in Prism GraphPad using the “Michaelis-Menten” function for enzyme kinetics, with a zero data point added for substrate concentration of 0 μM*min-1 and 0 μM substrate for AcpH graphs.

B1: Sfp: phosphopantetheinyl transferase (PPTase) from Bacillus subtilis (protein, UniProt P39135 1-224, looked up)
4'-phosphopantetheinyl …: MKIYGIYMDRPLSQEENERFMSFISPEKREKCRRFYHKEDAHRTLLGDVLVRSVISRQYQLDKSDIRFSTQEYGKPCIPDLPDAHFNISHSGRWVICAFDSQPIGIDIEKTKPISLEIAKRFFSKTEYSDLLAKDKDEQTDYFYHLWSMKESFIKQEGKGLSLPLDSFSVRLHQDGQVSIELPDSHSPCYIKTYEVDPGYKMAVCAAHPDFPEDITMVSYEELL
As to B1, the kcat in the series with apo-E. coli AcpP is 0.0967 s⁻¹; in the series with ybbR it was 11.

B2: CyAcpH: acyl carrier protein hydrolase homolog from Cyanothece PCC 7822, YP13 003888700.1 (protein)
chain: MNYLAHLFLADPTPESQIGNLLGDFVKGKIDNLSSIYSPEIIRGVKTHQKIDIFTDHHPIFKTSKQRLNQNHRKFAGVIIDIYYDHFLAKNWLIYSEQDLDEFVANTYQMLEQHQLLLPEKLQKALPCMIQEDWLGSYRYFEGIDQTFSRLSRRIKRTNNIAFALEDLIQNYSQLEEDFLQFFPQLIDYVNLA
modifications: Cyanothece sp. PCC 7822
Consider B2, for which the Michaelis-Menten constant (Km) (commonly the concentration of substrate that gives half-maximal velocity) with crypto-FITC-YbbR (3) is 21 µM; in the series with holo-ACP (E. coli) it was 58 ± 9 µM. In addition, the Vmax with crypto-FITC-YbbR (3) is 0.004 ± 0.004 min⁻¹; in the series with holo-ACP (E. coli) it was 1.1 ± 0.1 min⁻¹. Further, the kcat was 6.7e-05 ± 6.7e-05 s⁻¹ with crypto-FITC-YbbR (3); 3.52 s⁻¹ and 3.52 ± 0.183 s⁻¹ with holo-ACP (E. coli). The “AcpH qualitative CP activity” value was “no” in the series with L majuscula JamF; “YES^†” in the series on S. oneidensis AcpP; “no” with M. tuberculosis MAS; “YES” with L majuscula JamC; “YES” with A. parasiticus PksA; “YES” with P. falciparum ACP. Also, the “AcpH qualitative CP activity” value in the series with M. tuberculosis AcpM was “YES”; with V. cholerae VibB it was “no”; with A. orientalis CepK it was “no”; in the series with G. fujikuroi Pks4, “no”; in the series with P. agglomerans AdmA, “no”; in the series with E. coli AcpP it was “YES”. Further, the “AcpH qualitative CP activity” value with P. aeruginosa AcpP is “YES”; with S. coelicolor ActACP, “no”; with P. syringae SyrB1 it was “no”; with P. fluorescens PltL it was “no”; in the series on P. agglomerans AdmI, “no”. For the same molecule, the “qualitative activity for all ybbR constructs” value in the series with YbbR13 (Coumarin-PPant conjugated to all ybbR variations, Urea-PAGE) is given as “qualitative activity”. Besides, the “AcpH activity with modified ybbR peptide” value in the series on YbbR13 (YbbR13: N-term 6xHis, C-term GFP) is recorded as “YES”; with YbbR13 (YbbR13: N-term FITC, C-term N/A), “YES”; in the series on YbbR13 (YbbR13: N-term GFP, C-term 6xHis) it was “YES”; in the series on YbbR13 (YbbR13 free peptide: N-term N/A, C-term N/A), “YES”.

Values taken from patent US9823254B2, “Reversible chemoenzymatic labeling of native and fusion carrier protein motifs” (The Regents of the University of California, priority 2012, dated 2017).
